The results in this text go back to patent US20190382493A1 (published 2019).

Assay [1] deals with T1, cyno PDL1 (adsorbed in blockade assays) (cynomolgus monkey, UniProt G7PSE7 19-239). Put plainly: ELISA blocking of cyno B7-1 binding to PDL1; cyno B7-1 blockade.
For assay [2], the target named is T2, human PDL1 (R&D Systems) (human, UniProt Q9NZQ7 19-239). Put plainly: ELISA blocking of human PD-1 binding to PDL1; hPD-1 blockade. (In general: An ELISA detects its analyte on a solid surface through an enzyme-linked reagent.)
T2 sequence (Q9NZQ7 19-239): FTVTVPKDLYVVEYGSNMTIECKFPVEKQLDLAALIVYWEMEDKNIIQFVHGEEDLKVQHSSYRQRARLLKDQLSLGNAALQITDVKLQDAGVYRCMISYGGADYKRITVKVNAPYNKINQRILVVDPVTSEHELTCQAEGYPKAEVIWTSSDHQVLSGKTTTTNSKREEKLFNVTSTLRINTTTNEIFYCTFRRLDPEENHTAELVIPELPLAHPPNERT
Assay [3] addresses T2, human PDL1 (R&D Systems). In words: ELISA blocking of human B7-1 binding to PDL1; hB7-1 blockade.
Assay [4] deals with T3, mouse PDL1-Fc (R & D Systems) (mouse, UniProt Q9EP73 19-238). Put plainly: ELISA.
T3 sequence (Q9EP73 19-238): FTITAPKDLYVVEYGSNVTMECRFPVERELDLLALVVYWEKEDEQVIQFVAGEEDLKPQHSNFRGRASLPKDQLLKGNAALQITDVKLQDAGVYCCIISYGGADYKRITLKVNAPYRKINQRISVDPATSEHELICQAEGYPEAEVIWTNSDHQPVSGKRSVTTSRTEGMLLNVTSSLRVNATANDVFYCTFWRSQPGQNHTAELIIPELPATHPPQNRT
Assay [5] addresses T4, cynomolgus monkey (cyno) PDL1-Fc (Sino biological) (cynomolgus monkey, UniProt G7PSE7 19-239). Put plainly: ELISA.
The target in assay [6] is T5, human PDL1-Fc (R & D Systems) (human, UniProt Q9NZQ7 19-239). In words: ELISA.
T5 sequence (Q9NZQ7 19-239): as the sequence (Q9NZQ7 19-239) above
Assay [7] addresses T1, cyno PDL1 (adsorbed in blockade assays). In words: ELISA blocking of cyno PD-1 binding to PDL1; cyno PD1 blockade.
Assay [8] addresses T3, mouse PDL1-Fc (R & D Systems). In words: ELISA. The source holds these as a separate data set.
Assay [9] concerns the target T4, cynomolgus monkey (cyno) PDL1-Fc (Sino …). In words: ELISA. This is another data set of the same source.
Assay [10] has as its target T5, human PDL1-Fc (R & D Systems). Put plainly: ELISA. The source holds these as a separate data set.

Changes are numbered by the printed parent chain. Read-outs that look alike come from different tables or passages of the source.

T4 sequence (G7PSE7 entry or part of it): as the sequence (Q9NZQ7 19-239) above, with A33T, A34S, S62N, R68Q, Q82R, F173L, T185A, T192I, H215L counted along it
T1 sequence (G7PSE7 entry or part of it): as the sequence (Q9NZQ7 19-239) above, with A33T, A34S, S62N, R68Q, Q82R, F173L, T185A, T192I, H215L counted along it

B1: anti-PDL1 antibody C5H9v2 (antibody, V domains shown)
VH: EVQLLESGGGLVQPGGSLRLSCAASGFTFSSYAMSWVRQAPGKGLEWVSSIWRNGIVTVYADSVKGRFTISRDNSKNTLYLQMNSLRAEDTAVYYCAKWSAAFDYWGQGTLVTVSS
VL: DIQMTQSPSSLSASVGDRVTITCRASQSISSYLNWYQQKPGKAPKLLIYAASSLQSGVPSRFSGSGSGTDFTLTISSLQPEDFATYYCQQDNGYPSTFGGGTKVEIKR
As for B1, the IC50 in assay [1] stood at 100 pM; with human PDL1 (R&D Systems) [2] it was 700 pM; with human PDL1 (R&D Systems) [3], 500 pM. The Kd in [4] was 464 pM; in assay [5], 544 pM; in [6] it was 272 pM.

B2: anti-PDL1 activatable antibody PL07-2001-C5H9v2 (antibody)
VH: B1 VH
VL: QGQSGSGIALCPSHFCQLPQTGGGSSGGSGGSGGISSGLLSGRSDNHGGSDIQMTQSPSSLSASVGDRVTITCRASQSISSYLNWYQQKPGKAPKLLIYAASSLQSGVPSRFSGSGSGTDFTLTISSLQPEDFATYYCQQDNGYPSTFGGGTKVEIKR
In the case of B2, the IC50 in [1] was found to be 9600 pM; with human PDL1 (R&D Systems) [2] it was 39800 pM; in [7] it was 7000 pM; with human PDL1 (R&D Systems) [3], 11700 pM.

B3: anti-PDL1 antibody C5H9 (antibody, V domains shown)
VH: B1 VH
VL: B1 VL with A50Y, S53T, G100Q
Regarding B3, the Kd is 475 pM in assay [4], 398 pM in assay [5] and 286 pM in [6].

B4: C5H9 mIgG2a (antibody, V domains shown)
VH: B1 VH
VL: B1 VL with A50Y, S53T, G100Q
On to B4, for which the figures for the dissociation constant (Kd) in [8], in [9] and in assay [10] were 666 pM, 399 pM and 515 pM, respectively.

The term IC50 denotes the concentration at which inhibition is half-maximal. As a reminder, the Kd is the concentration at which binding is half-saturated.
